From publication PMC3794157, “Structure of the Fibrillin-1 N-Terminal Domains Suggests that Heparan Sulfate Regulates the Early Stages of Microfibril Assembly” (Structure(London, England:1993), 2013)

What was measured:
Assay in all cases: pull-down; biotinylated cbEGF41-43 or control cbEGF32-34 immobilised on M270 streptavidin-coated magnetic beads; 15 ug His-tagged protein in 50 mM Tris-HCl pH 7.4, 150 mM NaCl, 2 mM CaCl2, 0.05% Tween-20, 1% BSA for 1 hr; western blot with anti-RGS-His-HRP
Conditions in all cases: both partners purified
R62A FUN-EGF3 = target: T1, R62A FUN-EGF3 (human, UniProt P35555 45-178, R62A)
T1 construct: human fibrillin-1 FUN-EGF3, residues R45-E178, with R62A

[1] = target: T2, human fibrillin-1 FUN-EGF3 fragment (residues R45-E178) (human, UniProt P35555 45-178)
T2 construct: human fibrillin-1, fibrillin unique N-terminal (FUN) domain and EGF1-EGF3, residues R45-E178; The vector pQE-30 is named; also called wild-type (WT) FUN-EGF3; fibrillin N-terminal fragment

[2] = target: T3, FUN-EGF3 mutant lacking the 63Y-N-A-Y66 motif in the FUN domain (human, UniProt P35555 45-178, 63Y-N-A-Y66 deleted)
T3 construct: human fibrillin-1 FUN-EGF3, residues R45-E178, with 63Y-N-A-Y66 deleted; also called YNAY FUN-EGF3

FUN-EGF3 (G5) mutant = target: T4, FUN-EGF3 (G5) mutant (human, UniProt P35555 45-178, 113S-R-S-I-Q117 replaced with five glycines)
T4 construct: human fibrillin-1 FUN-EGF3, residues R45-E178, with 113S-R-S-I-Q117 of the EGF1-EGF2 linker replaced with five glycines; also called G5 FUN-EGF3

S88A FUN-EGF3 = target: T5, S88A FUN-EGF3 (human, UniProt P35555 45-178, S88A)
T5 construct: human fibrillin-1 FUN-EGF3, residues R45-E178, with S88 substituted with alanine

Measured: binding result

T5 sequence (P35555 45-178 S88A): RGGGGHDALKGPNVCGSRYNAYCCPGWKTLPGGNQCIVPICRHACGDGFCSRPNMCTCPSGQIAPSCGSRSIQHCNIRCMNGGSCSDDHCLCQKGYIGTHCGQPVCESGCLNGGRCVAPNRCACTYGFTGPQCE
T1 sequence (P35555 45-178 R62A): as the sequence (P35555 45-178 S88A) above, with R18A, A44S counted along it
T2 sequence (P35555 45-178): as the sequence (P35555 45-178 S88A) above, with A44S counted along it
T4 sequence (P35555 other isoform, or with tags, fused parts or gaps with the stated changes): as the sequence (P35555 45-178 S88A) above, with A44S, S69G, R70G, S71G, I72G, Q73G counted along it
T3 sequence (P35555 other isoform, or with tags, fused parts or gaps 63Y-N-A-Y66 deleted | 63Y-N-A-Y66 deleted | mutant): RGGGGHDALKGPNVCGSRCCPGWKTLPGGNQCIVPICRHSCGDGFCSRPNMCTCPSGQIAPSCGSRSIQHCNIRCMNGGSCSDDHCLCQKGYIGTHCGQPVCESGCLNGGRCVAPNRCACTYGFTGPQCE

B1: human fibrillin-1 cbEGF41-43 fragment (residues D2567-V2687), biotinylated, C-terminal BirA tag (domain or fragment)
chain: not shown
modifications: biotin, site-specific, on the BirA tag
notes: Held on streptavidin-coated magnetic beads by its biotin; also called fibrillin C-terminal fragment; not shown: BirA tag, C-terminal, kept
binds: all assays above
